Tests used:
[1] = target: human SIRPαBIT expressed on cells (human) (UniProt P78324); test: flow cytometry, U937 cells
[2] = target: cynomolgus monkey SIRPα expressed on ExpiCHO-S cells (cynomolgus monkey); test: flow cytometry, ExpiCHO-S cells
[3] = target: human SIRPα1 expressed on cells (human) (UniProt P78324); test: flow cytometry, ExpiCHO-S cells
[4] = target: human SIRPαBIT expressed on cells (human) (UniProt P78324); test: flow cytometry, ExpiCHO-S cells
[5] = target: human SIRPβ1v1, AVI-tagged, biotinylated, monomeric form (human) (UniProt O00241); test: SPR, captured monomeric antigen
[6] = target: human SIRPβ1v2, AVI-tagged, biotinylated, monomeric form (human) (UniProt Q5TFQ8); test: SPR, captured monomeric antigen
[7] = target: cynomolgus monkey SIRPα, extracellular domain, Avi-FXa-Fc tag (cynomolgus monkey); test: SPR, captured biotinylated antigen
[8] = target: human SIRPα1 extracellular domain 1-370, Avi-FXa-Fc tag (human); test: SPR, captured biotinylated antigen
[9] = target: human SIRPαBIT, extracellular domain 1-370, Avi-FXa-Fc tag (human); test: SPR, captured biotinylated antigen
[10] = target: human SIRPβ1v1, extracellular domain, Avi-FXa-Fc tag (human); test: SPR, captured biotinylated antigen
[11] = target: human SIRPβ1v2, extracellular domain, Avi-FXa-Fc tag (human); test: SPR, captured biotinylated antigen
[12] = target: human SIRPγ, extracellular domain, Avi-FXa-Fc tag (human); test: SPR, captured biotinylated antigen
human SIRPγ, extracellular domain, Avi-FXa-Fc tag (human), sequence (chain, as listed by the source limits assumed): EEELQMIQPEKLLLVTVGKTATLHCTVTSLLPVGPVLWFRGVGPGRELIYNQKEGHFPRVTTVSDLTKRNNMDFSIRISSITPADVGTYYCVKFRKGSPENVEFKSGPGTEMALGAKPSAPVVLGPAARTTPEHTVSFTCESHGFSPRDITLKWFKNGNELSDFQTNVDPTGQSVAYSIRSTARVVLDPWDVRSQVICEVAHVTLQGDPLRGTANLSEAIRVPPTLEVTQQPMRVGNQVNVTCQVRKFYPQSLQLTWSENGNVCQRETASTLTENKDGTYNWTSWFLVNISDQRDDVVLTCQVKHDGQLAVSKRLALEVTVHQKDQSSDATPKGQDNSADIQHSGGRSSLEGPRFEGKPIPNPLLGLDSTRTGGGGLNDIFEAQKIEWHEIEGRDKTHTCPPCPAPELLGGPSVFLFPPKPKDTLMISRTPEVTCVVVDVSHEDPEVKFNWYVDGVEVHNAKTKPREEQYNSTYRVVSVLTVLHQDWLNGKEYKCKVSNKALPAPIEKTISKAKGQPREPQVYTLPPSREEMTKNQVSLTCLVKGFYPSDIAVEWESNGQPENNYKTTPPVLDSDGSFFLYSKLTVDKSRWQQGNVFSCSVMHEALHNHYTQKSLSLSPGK

human SIRPαBIT expressed on cells (human), sequence (P78324 31-504 limits assumed): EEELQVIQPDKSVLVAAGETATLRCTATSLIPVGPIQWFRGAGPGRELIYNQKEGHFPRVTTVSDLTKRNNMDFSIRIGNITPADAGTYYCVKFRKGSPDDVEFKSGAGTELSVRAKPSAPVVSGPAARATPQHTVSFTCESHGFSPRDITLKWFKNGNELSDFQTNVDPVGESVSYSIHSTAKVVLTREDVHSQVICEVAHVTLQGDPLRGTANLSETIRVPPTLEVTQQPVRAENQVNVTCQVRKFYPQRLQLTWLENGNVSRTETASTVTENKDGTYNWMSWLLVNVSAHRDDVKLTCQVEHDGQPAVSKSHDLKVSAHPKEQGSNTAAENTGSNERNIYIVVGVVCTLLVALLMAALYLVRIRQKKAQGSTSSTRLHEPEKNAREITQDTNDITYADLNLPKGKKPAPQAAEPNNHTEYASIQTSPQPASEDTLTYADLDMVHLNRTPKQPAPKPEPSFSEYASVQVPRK
human SIRPβ1v1, extracellular domain, Avi-FXa-Fc tag (human), sequence (chain, as listed by the source limits assumed): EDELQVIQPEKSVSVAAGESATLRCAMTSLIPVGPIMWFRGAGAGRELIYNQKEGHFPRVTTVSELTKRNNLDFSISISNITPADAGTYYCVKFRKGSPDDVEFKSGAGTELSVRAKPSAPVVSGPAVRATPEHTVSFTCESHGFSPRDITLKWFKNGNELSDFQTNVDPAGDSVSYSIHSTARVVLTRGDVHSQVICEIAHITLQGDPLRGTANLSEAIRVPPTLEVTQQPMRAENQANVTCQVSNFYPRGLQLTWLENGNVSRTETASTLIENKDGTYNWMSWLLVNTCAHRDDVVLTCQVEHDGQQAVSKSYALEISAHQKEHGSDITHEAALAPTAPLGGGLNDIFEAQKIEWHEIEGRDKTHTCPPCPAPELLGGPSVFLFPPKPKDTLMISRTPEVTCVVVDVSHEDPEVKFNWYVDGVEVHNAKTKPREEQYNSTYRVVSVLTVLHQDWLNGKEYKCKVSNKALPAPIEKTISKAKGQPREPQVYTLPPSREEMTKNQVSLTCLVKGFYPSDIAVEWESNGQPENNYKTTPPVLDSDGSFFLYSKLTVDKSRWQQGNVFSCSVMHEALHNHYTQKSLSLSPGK
cynomolgus monkey SIRPα, extracellular domain, Avi-FXa-Fc tag (cynomolgus monkey), sequence (chain, as listed by the source limits assumed): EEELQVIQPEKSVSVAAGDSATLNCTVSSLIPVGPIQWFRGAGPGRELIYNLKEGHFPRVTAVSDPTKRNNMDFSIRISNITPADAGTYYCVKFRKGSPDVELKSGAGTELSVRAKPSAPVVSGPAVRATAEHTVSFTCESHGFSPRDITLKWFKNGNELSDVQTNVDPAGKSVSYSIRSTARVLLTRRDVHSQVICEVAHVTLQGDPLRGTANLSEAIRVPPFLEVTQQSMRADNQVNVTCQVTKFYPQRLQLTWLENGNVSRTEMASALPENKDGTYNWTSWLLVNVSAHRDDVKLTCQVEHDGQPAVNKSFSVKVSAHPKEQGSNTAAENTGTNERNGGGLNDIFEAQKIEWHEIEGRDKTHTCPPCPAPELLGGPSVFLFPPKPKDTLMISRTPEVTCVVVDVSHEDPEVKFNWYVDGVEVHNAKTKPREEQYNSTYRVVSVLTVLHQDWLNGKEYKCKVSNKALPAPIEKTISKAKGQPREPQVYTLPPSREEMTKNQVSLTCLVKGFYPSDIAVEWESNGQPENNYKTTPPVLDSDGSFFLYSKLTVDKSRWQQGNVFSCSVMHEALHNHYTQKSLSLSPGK
human SIRPα1 extracellular domain 1-370, Avi-FXa-Fc tag (human), sequence (chain, as listed by the source limits assumed): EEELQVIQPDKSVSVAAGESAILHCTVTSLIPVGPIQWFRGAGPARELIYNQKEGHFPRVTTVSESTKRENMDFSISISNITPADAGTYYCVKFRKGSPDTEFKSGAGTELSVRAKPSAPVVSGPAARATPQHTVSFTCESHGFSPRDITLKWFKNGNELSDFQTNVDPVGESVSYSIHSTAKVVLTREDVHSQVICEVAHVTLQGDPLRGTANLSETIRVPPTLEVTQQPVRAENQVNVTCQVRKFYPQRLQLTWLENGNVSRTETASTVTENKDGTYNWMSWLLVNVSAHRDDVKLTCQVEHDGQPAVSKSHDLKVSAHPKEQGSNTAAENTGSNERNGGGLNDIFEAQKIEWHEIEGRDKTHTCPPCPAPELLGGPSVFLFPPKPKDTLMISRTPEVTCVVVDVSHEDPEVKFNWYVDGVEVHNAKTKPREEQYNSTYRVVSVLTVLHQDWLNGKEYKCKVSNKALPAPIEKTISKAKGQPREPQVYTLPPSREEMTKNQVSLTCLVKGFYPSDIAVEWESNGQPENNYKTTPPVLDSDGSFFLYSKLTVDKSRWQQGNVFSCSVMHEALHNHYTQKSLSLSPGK
human SIRPβ1v2, extracellular domain, Avi-FXa-Fc tag (human), sequence (chain, as listed by the source limits assumed): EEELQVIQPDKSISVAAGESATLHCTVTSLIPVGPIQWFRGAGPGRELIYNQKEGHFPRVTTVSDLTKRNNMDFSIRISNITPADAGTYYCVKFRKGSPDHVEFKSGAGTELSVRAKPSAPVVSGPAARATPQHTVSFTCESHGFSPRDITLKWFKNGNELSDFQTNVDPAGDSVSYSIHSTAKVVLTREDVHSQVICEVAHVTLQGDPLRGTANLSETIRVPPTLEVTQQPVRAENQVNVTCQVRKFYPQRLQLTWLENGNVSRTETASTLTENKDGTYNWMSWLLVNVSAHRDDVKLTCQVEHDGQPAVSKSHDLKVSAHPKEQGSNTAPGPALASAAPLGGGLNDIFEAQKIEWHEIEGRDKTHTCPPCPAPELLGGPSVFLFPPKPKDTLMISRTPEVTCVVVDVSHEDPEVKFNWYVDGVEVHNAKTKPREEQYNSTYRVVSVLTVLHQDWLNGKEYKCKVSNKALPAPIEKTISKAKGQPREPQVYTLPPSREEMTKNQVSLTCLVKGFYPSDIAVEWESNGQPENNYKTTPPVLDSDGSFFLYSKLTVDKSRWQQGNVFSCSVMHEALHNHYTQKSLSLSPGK
human SIRPα1 expressed on cells (human), sequence (P78324 other isoform, or with tags, fused parts or gaps limits assumed): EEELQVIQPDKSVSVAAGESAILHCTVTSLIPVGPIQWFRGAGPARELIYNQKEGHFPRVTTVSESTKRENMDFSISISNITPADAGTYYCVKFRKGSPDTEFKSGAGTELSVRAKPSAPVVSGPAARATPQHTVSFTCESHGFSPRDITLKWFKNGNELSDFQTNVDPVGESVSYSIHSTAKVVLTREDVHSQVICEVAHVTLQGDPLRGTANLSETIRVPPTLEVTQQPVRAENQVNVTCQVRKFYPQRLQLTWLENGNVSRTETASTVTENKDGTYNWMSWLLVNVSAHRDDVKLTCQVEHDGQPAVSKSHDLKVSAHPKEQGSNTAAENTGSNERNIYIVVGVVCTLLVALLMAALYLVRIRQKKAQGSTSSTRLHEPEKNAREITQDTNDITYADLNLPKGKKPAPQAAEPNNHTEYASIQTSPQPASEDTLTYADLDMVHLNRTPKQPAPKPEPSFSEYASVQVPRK
human SIRPβ1v1, AVI-tagged, biotinylated, monomeric form (human), sequence (O00241 30-371): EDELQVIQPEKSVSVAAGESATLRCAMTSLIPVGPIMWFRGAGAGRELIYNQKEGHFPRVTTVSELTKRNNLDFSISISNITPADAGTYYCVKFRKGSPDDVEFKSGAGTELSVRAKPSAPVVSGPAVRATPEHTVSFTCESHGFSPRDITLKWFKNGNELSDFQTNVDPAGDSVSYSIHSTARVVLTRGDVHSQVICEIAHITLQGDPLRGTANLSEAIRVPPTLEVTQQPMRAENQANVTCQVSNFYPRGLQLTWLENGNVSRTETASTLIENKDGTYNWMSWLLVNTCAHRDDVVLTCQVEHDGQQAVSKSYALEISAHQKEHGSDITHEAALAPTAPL
human SIRPβ1v2, AVI-tagged, biotinylated, monomeric form (human), sequence (Q5TFQ8 30-371): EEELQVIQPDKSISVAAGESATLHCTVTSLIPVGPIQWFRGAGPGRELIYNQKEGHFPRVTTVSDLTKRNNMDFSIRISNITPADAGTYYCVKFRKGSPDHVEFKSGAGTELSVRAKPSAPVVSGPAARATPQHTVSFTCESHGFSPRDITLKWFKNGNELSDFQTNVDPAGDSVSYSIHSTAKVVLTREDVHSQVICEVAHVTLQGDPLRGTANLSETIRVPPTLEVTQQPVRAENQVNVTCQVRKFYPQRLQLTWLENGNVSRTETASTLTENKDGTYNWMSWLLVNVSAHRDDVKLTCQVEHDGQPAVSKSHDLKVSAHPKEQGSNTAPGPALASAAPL

EC50 [1]: 1.48 µg/mL | EC50 [2]: 0.05 µg/mL | EC50 [3]: 0.09 µg/mL | EC50 [4]: 0.62 µg/mL | Kd [5]: 0.0631 nM | Kd [6]: 0.358 nM | Kd [7]: 1.8 nM | Kd [8]: 0.0154 nM | Kd [9]: 0.798 nM | Kd [10]: 0.0382 nM | Kd [11]: 0.287 nM | Kd [12]: 2.66 nM
Substance: SE5A5 (mouse IgG1κ, Biolegend, purified anti-human CD172a/b) (antibody)

Reference: patent US20210388107A1
